Results: the supplement of paper PMC6757056
± gives the standard deviation of the averaged measurements.

B1: library; a variant is named by its letters at N, in order (parent)
chain: GCUGUCACCGGUGCUUGGUACGUUAUAUUCAGCCGGUCUGAUGAGUCUNNNNNNAGACGAAACAGC

How the values were obtained:
(6R,S)-folinic acid [1] = variants of: B1; assay: normalized RNA/DNA level without ligand (relative to sTRSVctl = 100) (log10 (% of sTRSVctl)); HEK293T overexpressing SLC46A1; higher = less ribozyme self-cleavage, higher mRNA level; details: without (6R,S)-folinic acid; ligand present: no
Outline: (§1)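 Ribozyme switch library plasmids with mCherry reporters (eGFP in certain ligand experiments) went into HEK293T cells at 4 µg per 6-well well. Where ligand was used, it was applied 1 h before transfection, and total RNA was extracted with EDTA 72 h later for reverse transcription, amplification, barcoding and sequencing. RNA level is the RNA-to-DNA read ratio normalized to a spiked-in non-cleaving sequence or to the leading sequences, then scaled and log-transformed. Scaling was ×100 with log10, the leading set comprised 25 sequences, and the cutoff was ≥100 DNA reads.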

(6R,S)-folinic acid [2] = variants of: B1; assay: normalized RNA/DNA level with ligand (relative to sTRSVctl = 100) (log10 (% of sTRSVctl)); HEK293T overexpressing SLC46A1; ligand concentration (+) RNA-Seq: 6 mM; higher = less ribozyme self-cleavage, higher mRNA level; details: with (6R,S)-folinic acid; ligand present: yes
Outline: as §1

| Variant | normalized RNA/DNA level without ligand (log10) ((6R,S)-folinic acid [1]) | normalized RNA/DNA level with ligand (log10) ((6R,S)-folinic acid [2]) |
| --- | --- | --- |
| GGGUUA | 2.052 ± 0.0032 | 2.034 ± 0.01 |
| UGGUUA | 1.945 ± 0.013 | 2.01 ± 0.071 |
| CGGUUC | 2.02 ± 0.0095 | 2.01 ± 0.07 |
| GGGUUC | 2.027 ± 0.006 | 2.001 ± 0.0053 |
| UGGUUC | 2.01 ± 0.011 | 2.01 ± 0.081 |
| AGGUUC | 2.02 ± 0.024 | 2.03 ± 0.045 |
| CGGUUG | 2.026 ± 0.02 | 2 ± 0.065 |
| AGGUUG | 2.005 ± 0.013 | 2.04 ± 0.053 |
| CGGUUU | 2.033 ± 0.017 | 2.056 ± 0.012 |
| GGGUUU | 2.029 ± 0.015 | 2.04 ± 0.036 |
| UGGUUU | 1.95 ± 0.021 | 1.97 ± 0.026 |
| CGUAAC | 1.98 ± 0.025 | 1.99 ± 0.043 |
| GGUAAC | 1.99 ± 0.041 | 2.005 ± 0.012 |
| UGUAAC | 1.95 ± 0.034 | 1.99 ± 0.038 |
| AGUAAC | 2.003 ± 0.0042 | 2.01 ± 0.026 |
| CGUAAG | 2.011 ± 0.0091 | 2.03 ± 0.018 |
| AGUAAG | 1.897 ± 0.0041 | 2.01 ± 0.057 |
| AGUAAU | 1.99 ± 0.02 | 2 ± 0.026 |
| CGUACA | 2.01 ± 0.0077 | 2.041 ± 0.02 |
| UGUACA | 1.958 ± 0.018 | 2 ± 0.051 |

| Variant | normalized RNA/DNA level without ligand (log10) ((6R,S)-folinic acid [1]) | normalized RNA/DNA level with ligand (log10) ((6R,S)-folinic acid [2]) |
| --- | --- | --- |
| AGUACA | 1.983 ± 0.0056 | 2 ± 0.038 |
| CGUACC | 2.1 ± 0.0079 | 2.021 ± 0.016 |
| GGUACC | 2.067 ± 0.015 | 2.03 ± 0.04 |
| UGUACC | 2.019 ± 0.0028 | 2.03 ± 0.057 |
| AGUACC | 2.07 ± 0.0045 | 2.04 ± 0.044 |
| CGUACG | 2.018 ± 0.011 | 2.0285 ± 0.0013 |
| GGUACG | 2.025 ± 0.017 | 2.04 ± 0.049 |
| UGUACG | 1.772 ± 0.0054 | 1.98 ± 0.038 |
| CGUACU | 2.0544 ± 0.00062 | 2.043 ± 0.0063 |
| GGUACU | 2.063 ± 0.0044 | 2.04 ± 0.022 |
| AGUACU | 2.008 ± 0.0088 | 2.02 ± 0.043 |
| CGUAGA | 1.9919 ± 0.00011 | 1.99 ± 0.043 |
| GGUAGA | 1.995 ± 0.01 | 2.01 ± 0.022 |
| UGUAGA | 1.84 ± 0.021 | 2.002 ± 0.017 |
| AGUAGA | 1.943 ± 0.0031 | 2.018 ± 0.0096 |
| CGUAGC | 2.03 ± 0.023 | 2.03 ± 0.022 |
| GGUAGC | 1.923 ± 0.015 | 2.017 ± 0.013 |
| AGUAGC | 1.986 ± 8.8e-05 | 2 ± 0.039 |
| CGUAGG | 1.829 ± 0.015 | 1.979 ± 0.013 |
| GGUAGG | 1.933 ± 0.013 | 1.99 ± 0.042 |

| Variant | normalized RNA/DNA level without ligand (log10) ((6R,S)-folinic acid [1]) | normalized RNA/DNA level with ligand (log10) ((6R,S)-folinic acid [2]) |
| --- | --- | --- |
| AGUAGG | 1.897 ± 0.0057 | 2.02 ± 0.021 |
| CGUAGU | 2.011 ± 0.0076 | 2 ± 0.034 |
| UGUAGU | 1.903 ± 0.015 | 2.06 ± 0.059 |
| AGUAGU | 1.943 ± 0.0095 | 2.012 ± 0.019 |
| UGUAUA | 1.953 ± 0.0013 | 2.01 ± 0.022 |
| AGUAUA | 1.9846 ± 0.0011 | 2.02 ± 0.0084 |
| CGUAUC | 2.09 ± 0.0065 | 2.07 ± 0.023 |
| GGUAUC | 2.011 ± 0.008 | 2.0104 ± 0.001 |
| AGUAUC | 2.059 ± 0.0016 | 2.03 ± 0.0073 |
| CGUAUG | 2.016 ± 0.012 | 2.01 ± 0.016 |
| GGUAUU | 2.002 ± 0.014 | 1.98 ± 0.032 |
| AGUAUU | 2 ± 0.011 | 2.032 ± 0.018 |
| CGUCAA | 1.98 ± 0.022 | 1.974 ± 0.018 |
| GGUCAA | 1.99 ± 0.028 | 2 ± 0.024 |
| UGUCAA | 1.968 ± 0.018 | 2.002 ± 0.014 |
| CGUCAC | 2.032 ± 0.0083 | 1.99 ± 0.049 |
| GGUCAC | 1.99 ± 0.031 | 2 ± 0.039 |
| UGUCAC | 2.03 ± 0.015 | 2.01 ± 0.021 |
